Test results taken from patent US20090099029.

T1: Bovine, dephosphorylated, Myelin Basic Protein (MBP), P02687
T1 chain: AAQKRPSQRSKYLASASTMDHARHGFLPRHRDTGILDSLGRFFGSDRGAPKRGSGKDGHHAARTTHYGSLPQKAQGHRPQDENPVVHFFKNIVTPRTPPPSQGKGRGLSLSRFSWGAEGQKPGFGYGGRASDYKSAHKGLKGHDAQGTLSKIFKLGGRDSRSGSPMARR

B1: BTK (protein)
chain: MAAVILESIFLKRSQQKKKTSPLNFKKRLFLLTVHKLSYYEYDFERGRRGSKKGSIDVEKITCVETVVPEKNPPPERQIPRRGEESSEMEQISIIERFPYPFQVVYDEGPLYVFSPTEELRKRWIHQLKNVIRYNSDLVQKYHPCFWIDGQYLCCSQTAKNAMGCQILENRNGSLKPGSSHRKTKKPLPPTPEEDQILKKPLPPEPAAAPVSTSELKKVVALYDYMPMNANDLQLRKGDEYFILEESNLPWWRARDKNGQEGYIPSNYVTEAEDSIEMYEWYSKHMTRSQAEQLLKQEGKEGGFIVRDSSKAGKYTVSVFAKSTGDPQGVIRHYVVCSTPQSQYYLAEKHLFSTIPELINYHQHNSAGLISRLKYPVSQQNKNAPSTAGLGYGSWEIDPKDLTFLKELGTGQFGVVKYGKWRGQYDVAIKMIKEGSMSEDEFIEEAKVMMNLSHEKLVQLYGVCTKQRPIFIITEYMANGCLLNYLREMRHRFQTQQLLEMCKDVCEAMEYLESKQFLHRDLAARNCLVNDQGVVKVSDFGLSRYVLDDEYTSSVGSKFPVRWSPPEVLMYSKFSSKSDIWAFGVLMWEIYSLGKMPYERFTNSETAEHIAQGLRLYRPHLASEKVYTIMYSCWHEKADERPTFKILLSNILDVMDEES
B2: CSK (protein)
chain: MSAIQAAWPSGTECIAKYNFHGTAEQDLPFCKGDVLTIVAVTKDPNWYKAKNKVGREGIIPANYVQKREGVKAGTKLSLMPWFHGKITREQAERLLYPPETGLFLVRESTNYPGDYTLCVSCDGKVEHYRIMYHASKLSIDEEVYFENLMQLVEHYTSDADGLCTRLIKPKVMEGTVAAQDEFYRSGWALNMKELKLLQTIGKGEFGDVMLGDYRGNKVAVKCIKNDATAQAFLAEASVMTQLRHSNLVQLLGVIVEEKGGLYIVTEYMAKGSLVDYLRSRGRSVLGGDCLLKFSLDVCEAMEYLEGNNFVHRDLAARNVLVSEDNVAKVSDFGLTKEASSTQDTGKLPVKWTAPEALREKKFSTKSDVWSFGILLWEIYSFGRVPYPRIPLKDVVPRVEKGYKMDAPDGCPPAVYEVMKNCWHLDAAMRPSFLQLREQLEHIKTHELHL
B3: LYNA (protein)
chain: MGCIKSKGKDSLSDDGVDLKTQPVRNTERTIYVRDPTSNKQQRPVPESQLLPGQRFQTKDPEEQGDIVVALYPYDGIHPDDLSFKKGEKMKVLEEHGEWWKAKSLLTKKEGFIPSNYVAKLNTLETEEWFFKDITRKDAERQLLAPGNSAGAFLIRESETLKGSFSLSVRDFDPVHGDVIKHYKIRSLDNGGYYISPRITFPCISDMIKHYQKQADGLCRRLEKACISPKPQKPWDKDAWEIPRESIKLVKRLGAGQFGEVWMGYYNNSTKVAVKTLKPGTMSVQAFLEEANLMKTLQHDKLVRLYAVVTREEPIYIITEYMAKGSLLDFLKSDEGGKVLLPKLIDFSAQIAEGMAYIERKNYIHRDLRAANVLVSESLMCKIADFGLARVIEDNEYTAREGAKFPIKWTAPEAINFGCFTIKSDVWSFGILLYEIVTYGKIPYPGRTNADVMTALSQGYRMPRVENCPDELYDIMKMCWKEKAEERPTFDYLQSVLDDFYTATEGQYQQQP
B4: BMX (protein)
chain: MDTKSILEELLLKRSQQKKKMSPNNYKERLFVLTKTNLSYYEYDKMKRGSRKGSIEIKKIRCVEKVNLEEQTPVERQYPFQIVYKDGLLYVYASNEESRSQWLKALQKEIRGNPHLLVKYHSGFFVDGKFLCCQQSCKAAPGCTLWEAYANLHTAVNEEKHRVPTFPDRVLKIPRAVPVLKMDAPSSSTTLAQYDNESKKNYGSQPPSSSTSLAQYDSNSKKIYGSQPNFNMQYIPREDFPDWWQVRKLKSSSSSEDVASSNQKERNVNHTTSKISWEFPESSSSEEEENLDDYDWFAGNISRSQSEQLLRQKGKEGAFMVRNSSQVGMYTVSLFSKAVNDKKGTVKHYHVHTNAENKLYLAENYCFDSIPKLIHYHQHNSAGMITRLRHPVSTKANKVPDSVSLGNGIWELKREEITLLKELGSGQFGVVQLGKWKGQYDVAVKMIKEGSMSEDEFFQEAQTMMKLSHPKLVKFYGVCSKEYPIYIVTEYISNGCLLNYLRSHGKGLEPSQLLEMCYDVCEGMAFLESHQFIHRDLAARNCLVDRDLCVKVSDFGMTRYVLDDQYVSSVGTKFPVKWSAPEVFHYFKYSSKSDVWAFGILMWEVFSLGKQPYDLYDNSQVVLKVSQGHRLYRPHLASDTIYQIMYSCWHELPEKRPTFQQLLSSIEPLREKDKH
B5: ABL2(ARG) (protein)
chain: MGQQVGRVGEAPGLQQPQPRGIRGSSAARPSGRRRDPAGRTTETGFNIFTQHDHFASCVEDGFEGDKTGGSSPEALHRPYGCDVEPQALNEAIRWSSKENLLGATESDPNLFVALYDFVASGDNTLSITKGEKLRVLGYNQNGEWSEVRSKNGQGWVPSNYITPVNSLEKHSWYHGPVSRSAAEYLLSSLINGSFLVRESESSPGQLSISLRYEGRVYHYRINTTADGKVYVTAESRFSTLAELVHHHSTVADGLVTTLHYPAPKCNKPTVYGVSPIHDKWEMERTDITMKHKLGGGQYGEVYVGVWKKYSLTVAVKTLKEDTMEVEEFLKEAAVMKEIKHPNLVQLLGVCTLEPPFYIVTEYMPYGNLLDYLRECNREEVTAVVLLYMATQISSAMEYLEKKNFIHRDLAARNCLVGENHVVKVADFGLSRLMTGDTYTAHAGAKFPIKWTAPESLAYNTFSIKSDVWAFGVLLWEIATYGMSPYPGIDLSQVYDLLEKGYRMEQPEGCPPKVYELMRACWKWSPADRPSFAETHQAFETMFHDSSISEEVAEELGRAASSSSVVPYLPRLPILPSKTRTLKKQVENKENIEGAQDATENSASSLAPGFIRGAQASSGSPALPRKQRDKSPSSLLEDAKETCFTRDRKGGFFSSFMKKRNAPTPPKRSSSFREMENQPHKKYELTGNFSSVASLQHADGFSFTPAQQEANLVPPKCYGGSFAQRNLCNDDGGGGGGSGTAGGGWSGITGFFTPRLIKKTLGLRAGKPTASDDTSKPFPRSNSTSSMSSGLPEQDRMAMTLPRNCQRSKLQLERTVSTSSQPEENVDRANDMLPKKSEESAAPSRERPKAKLLPRGATALPLRTPSGDLAITEKDPPGVGVAGVAAAPKGKEKNGGARLGMAGVPEDGEQPGWPSPAKAAPVLPTTHNHKVPVLISPTLKHTPADVQLIGTDSQGNKFKLLSEHQVTSSGDKDRPRRVKPKCAPPPPPVMRLLQHPSICSDPTEEPTALTAGQSTSETQEGGKKAALGAVPISGKAGRPVMPPPQVPLPTSSISPAKMANGTAGTKVALRKTKQAAEKISADKISKEALLECADLLSSALTEPVPNSQLVDTGHQLLDYCSGYVDCIPQTRNKFAFREAVSKLELSLQELQVSSAAAGVPGTNPVLNNLLSCVQEISDVVQR
B6: FER (protein)
chain: KSGVVLLNPIPKDKKWILSHEDVILGELLGKGNFGEVYKGTLKDKTSVAVKTCKEDLPQELKIKFLQEAKILKQYDHPNIVKLIGVCTQRQPVYIIMELVSGGDFLTFLRRKKDELKLKQLVKFSLDAAAGMLYLESKNCIHRDLAARNCLVGENNVLKISDFGMSRQEDGGVYSSSGLKQIPIKWTAPEALNYGRYSSESDVWSFGILLWETFSLGVCPYPGMTNQQAREQVERGYRMSAPQHCPEDISKIMMKCWDYKPENRPKFSELQKELTIIKRKLT
B7: TYRO3 (protein)
chain: LRKRRKETRFGQAFDSVMARGEPAVHFRAARSFNRERPERIEATLDSLGISDELKEKLEDVLIPEQQFTLGRMLGKGEFGSVREAQLKQEDGSFVKVAVKMLKADIIASSDIEEFLREAACMKEFDHPHVAKLVGVSLRSRAKGRLPIPMVILPFMKHGDLHAFLLASRIGENPFNLPLQTLIRFMVDIACGMEYLSSRNFIHRDLAARNCMLAEDMTVCVADFGLSRKIYSGDYYRQGCASKLPVKWLALESLADNLYTVQSDVWAFGVTMWEIMTRGQTPYAGIENAEIYNYLIGGNRLKQPPECMEDVYDLMYQCWSADPKQRPSFTCLRMELENILGQLSVLSASQDPLYINIERAEEPTAGGSLELPGRDQPYSGAGDGSGMGAVGGTPSDCRYILTPGGLAEQPGQAEHQPESPLNETQRLLLLQQGLLPHSSC
B8: FES (protein)
chain: MGFSSELCSPQGHGVLQQMQEAELRLLEGMRKWMAQRVKSDREYAGLLHHMSLQDSGGQSRAISPDSPISQSWAEITSQTEGLSRLLRQHAEDLNSGPLSKLSLLIRERQQLRKTYSEQWQQLQQELTKTHSQDIEKLKSQYRALARDSAQAKRKYQEASKDKDRDKAKDKYVRSLWKLFAHHNRYVLGVRAAQLHHQHHHQLLLPGLLRSLQDLHEEMACILKEILQEYLEISSLVQDEVVAIHREMAAAAARIQPEAEYQGFLRQYGSAPDVPPCVTFDESLLEEGEPLEPGELQLNELTVESVQHTLTSVTDELAVATEMVFRRQEMVTQLQQELRNEEENTHPRERVQLLGKRQVLQEALQGLQVALCSQAKLQAQQELLQTKLEHLGPGEPPPVLLLQDDRHSTSSSEQEREGGRTPTLEILKSHISGIFRPKFSLPPPLQLIPEVQKPLHEQLWYHGAIPRAEVAELLVHSGDFLVRESQGKQEYVLSVLWDGLPRHFIIQSLDNLYRLEGEGFPSIPLLIDHLLSTQQPLTKKSGVVLHRAVPKDKWVLNHEDLVLGEQIGRGNFGEVFSGRLRADNTLVAVKSCRETLPPDLKAKFLQEARILKQYSHPNIVRLIGVCTQKQPIYIVMELVQGGDFLTFLRTEGARLRVKTLLQMVGDAAAGMEYLESKCCIHRDLAARNCLVTEKNVLKISDFGMSREEADGVYAASGGLRQVPVKWTAPEALNYGRYSSESDVWSFGILLWETFSLGASPYPNLSNQQTREFVEKGGRLPCPELCPDAVFRLMEQCWAYEPGQRPSFSTIYQELQSIRKRHR
B9: ROS1 (protein)
chain: HRRLKNQKSAKEGVTVLINEDKELAELRGLAAGVGLANACYAIHTLPTQEEIENLPAFPREKLTLRLLLGSGAFGEVYEGTAVDILGVGSGEIKVAVKTLKKGSTDQEKIEFLKEAHLMSKFNHPNILKQLGVCLLNEPQYIILELMEGGDLLTYLRKARMATFYGPLLTLVDLVDLCVDISKGCVYLERMHFIHRDLAARNCLVSVKDYTSPRIVKIGDFGLARDIYKNDYYRKRGEGLLPVRWMAPESLMDGIFTTQSDVWSFGILIWEILTLGHQPYPAHSNLDVLNYVQTGGRLEPPRNCPDDLWNLMTQCWAQEPDQRPTFHRIQDQLQLFRNFFLNSIYKSRDEANNSGVINESFEGEDGDVICLNSDDIMPVALMETKNREGLNYMVLATECGQGEEKSEGPLGSQESESCGLRKEEKEPHADKDFCQEKQVAYCPSGKPEGLNYACLTHSGYGDGSD
B10: JAK3 (protein)
chain: ISSDYELLSDPTPGALAPRDGLWNGAQLYACQDPTIFEERHLKYISQLGKGNFGSVELCRYDPLGDNTGALVAVKQLQHSGPDQQRDFQREIQILKALHSDFIVKYRGVSYGPGRQSLRLVMEYLPSGCLRDFLQRHRARLDASRLLLYSSQICKGMEYLGSRRCVHRDLAARNILVESEAHVKIADFGLAKLLPLDKDYYVVREPGQSPIFWYAPESLSDNIFSRQSDVWSFGVVLYELFTYCDKSCSPSAEFLRMMGCERDVPALCRLLELLEEGQRLPAPPACPAEVHELMKLCWAPSPQDRPSFSALGPQLDMLWSGSRGCETHAFTAHPEGKHHSLSFS

Target: T1, Bovine, dephosphorylated, Myelin Basic …

MBP Kinase Activity, Strong:
B1
B4
B7
B9
B10

MBP Kinase Activity, Weak:
B3
B5

MBP Kinase Activity, Negative:
B2
B6
B8
